From US6660837B1, “Modified protein derived from protein kinase N” (Kirin Beer Kabushiki Kaisha, priority 1995, dated 2003)
Ends that are not written are not given here.

Experiments:
full-length human PKN = full-length human PKN (Homo sapiens, UniProt Q16512); assay: Co-immunoprecipitation of PKN with HA-tagged α-actinin in COS7 cells; format: cell-based
[1] = molecular target: T1, in vitro translated PKNN2 (Homo sapiens, UniProt Q16512); assay: In vitro binding of GST-HuActSkl fragments to PKNN2; settings: resistant to 0.5% Triton X-100/0.5 M NaCl wash
T1 construct: made in house; host or cells: in vitro translation in rabbit reticulocyte lysate (Promega)
T1 sequence (Q16512 1-474): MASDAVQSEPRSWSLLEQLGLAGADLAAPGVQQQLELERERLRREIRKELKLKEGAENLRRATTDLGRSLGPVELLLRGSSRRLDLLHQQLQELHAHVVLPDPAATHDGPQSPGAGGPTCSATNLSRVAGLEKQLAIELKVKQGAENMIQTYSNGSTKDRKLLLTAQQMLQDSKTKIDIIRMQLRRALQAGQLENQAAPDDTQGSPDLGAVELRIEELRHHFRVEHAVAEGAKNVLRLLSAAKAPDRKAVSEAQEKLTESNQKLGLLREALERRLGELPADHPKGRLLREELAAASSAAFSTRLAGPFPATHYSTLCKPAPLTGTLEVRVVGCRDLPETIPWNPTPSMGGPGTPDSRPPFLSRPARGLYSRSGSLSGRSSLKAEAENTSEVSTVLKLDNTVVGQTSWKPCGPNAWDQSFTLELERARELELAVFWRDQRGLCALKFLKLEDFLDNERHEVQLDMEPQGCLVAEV
Experimental: In vitro transcription for the N-terminal region of PKN (the amino acid sequence 1-474, this region being designated as PKNN2 (Example 8)) was performed as described in Example 8. For in vitro translation, cRNAs were translated in rabbit reticulocyte lysate (Promega) in the presence of [^35S] methionine as described in Example 8.
(§1) For in vitro binding experiment, 2 μl of in vitro translated PKNN2 was mixed with 5 μg of each GST-α-actinin fusion protein or with 25 μg of GST alone in 400 μl of GST binding buffer (20 mM Tris/HCl at pH 7.5, 0.5 mM DTT, 150 mM NaCl, 0.05% Triton-X100, 1 mM EDTA, 1 μg/ml leupeptin) and incubated for 1 hr at 4° C. After addition of 25 μl of glutathione-Sepharose 4B pretreated with 10 mg/ml of E. coli extract to block nonspecific binding, the binding reaction was continued for additional 30 min at 4° C. The glutathione-Sepharose 4B was then washed four times in GST washing buffer (20 mM Tris/HCl at pH 7.5, 0.5 mM DTT, 1 mM EDTA, 1 μg/ml leupeptin) containing 0.5 M NaCl and 0.5% Triton X-100, and further washed with GST washing buffer. Bound proteins were eluted with GST elution buffer (100 mM Tris/HCl at pH 7.5, 10 mM glutathione, 120 mM NaCl, 1 mM EDTA, 0.5 mM DTT, 1 μg/ml leupeptin) and were subjected to SDS-PAGE. The binding was visualized and quantitated by an imaging analyzer (FUJI BAS1000).

[2] = tested on: repeat 20 of rat α-spectrin; assay: In vitro binding of PKN to α-spectrin repeat 20
Experimental: cDNAs encoding the spectrin-like repeat 3 (the amino acid sequence 479-600) and EF-hand-like region (the amino acid sequence 712-843) of HuActNm were amplified by PCR from human brain cDNA library, and were ligated to pGEX4T vector. cDNAs encoding the spectrin repeat 20 and EF-hand-like region of α-actinin were amplified by PCR from rat brain cDNA library, and were ligated to pGEX4T vector. Expression and purification of GST or GST fusion proteins were performed according to the manufacturer's instruction (Phamacia Biotech Inc.). The eluate from glutathione-Sepharose 4B (Pharmacia Biotech Inc.) was dialyzed overnight against 10 mM Tris/HCl at pH 7.5 containing 1 mM EDTA, 1 mM DTT, and 0.1 μg/ml leupeptin.
Since PKN bound to the repeat 3 of α-actinin, the present inventors have examined whether PKN can bind to the repeat 20 of α-spectrin.

[3] = tested on: GST-NF (each subunit) fusion proteins; assay: In vitro binding of in vitro translated PKN to GST-NF (each subunit); settings: GST pull-down
Excerpt: For in vitro transcription, truncated human PKN was made as follows; Expression vector pPKNN2 for N-terminal region of PKN (the amino acid sequence 1-474 in SEQ ID NO: 1, this region was designated as “PKNN2”) was made by digesting phPKN-H4 (a plasmid containing human PKN cDNA in pBluescript II SK (Mukai, H. & Ono, Y., Biochem. Biophys. Res. Commun. 199, 897-904 (1994)) with Bst EII, and filling in the ends with T4 DNA polymerase, and self-legation. This removed the original amino acid sequences C-terminal downstream of the BstEII site (1425 nucleotides from initiating ATG codon), and a stop codon was created in the plasmid sequence. Fragment coding for the amino acid sequence 614-942 in SEQ ID NO: 1, (This region was designated as “PKNC2”) containing the conserved catalytic domain of human PKN was made by PCR amplification. Expression vector pPKNC2 was made by subcloning this fragment into pRc/CMV (Invitfrogen Corp.). These plasmids were linealized by cutting with XbaI, and CRNA was transcribed using T7 RNA polymerase. For NFL, pBL (Nakagawa, T. et al., J. Cell. Biol. 129, 411-429 (1995)) was linealized by cutting with HindIII, and CRNA was transcribed using T3 RNA polymerase. For in vitro translation, these cRNAs were translated in rabbit reticulocyte lysate (Promega) in the presence of [^35S] methionine. […]

[4] = molecular target: T2, spectrin-like repeat 3 domain of HuActNm (Homo sapiens, UniProt P12814); assay: In vitro binding of PKNN2 to HuActNm spectrin-like repeat 3
T2 construct: made in house; host or cells: E. coli
T2 sequence (P12814 479-600): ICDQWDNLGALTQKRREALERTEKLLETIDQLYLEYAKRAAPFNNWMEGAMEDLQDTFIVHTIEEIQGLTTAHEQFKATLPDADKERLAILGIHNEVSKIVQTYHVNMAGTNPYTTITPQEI
Experimental: as §1
(§2) Accordingly, the present inventors have studied whether the in vitro translated PKNN2 could bind to the region of HuActNm corresponding to the PKN-binding site of HuActSkl in the same manner as in Example 25. The HuActNm fragment used in the experiment was prepared according to the following procedure. […]

[5] = molecular target: T3, EF-hand-like domain of HuActNm (Homo sapiens, UniProt P12814); assay: In vitro binding of PKNN2 to HuActNm EF-hand-like domain
T3 construct: made in house; host or cells: E. coli (GST fusion); rabbit reticulocyte lysate (PKNN2)
T3 sequence (P12814 712-843): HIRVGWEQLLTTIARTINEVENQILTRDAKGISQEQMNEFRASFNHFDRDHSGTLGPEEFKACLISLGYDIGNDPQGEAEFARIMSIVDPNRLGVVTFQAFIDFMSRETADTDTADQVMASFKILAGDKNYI
Experimental: as §1, §2

α-actinin (HuActSkl) = assay: Yeast two-hybrid, regions of PKN with HuActSkl; format: binding, human
Chain of α-actinin (HuActSkl) (P35609 344-894 limits assumed): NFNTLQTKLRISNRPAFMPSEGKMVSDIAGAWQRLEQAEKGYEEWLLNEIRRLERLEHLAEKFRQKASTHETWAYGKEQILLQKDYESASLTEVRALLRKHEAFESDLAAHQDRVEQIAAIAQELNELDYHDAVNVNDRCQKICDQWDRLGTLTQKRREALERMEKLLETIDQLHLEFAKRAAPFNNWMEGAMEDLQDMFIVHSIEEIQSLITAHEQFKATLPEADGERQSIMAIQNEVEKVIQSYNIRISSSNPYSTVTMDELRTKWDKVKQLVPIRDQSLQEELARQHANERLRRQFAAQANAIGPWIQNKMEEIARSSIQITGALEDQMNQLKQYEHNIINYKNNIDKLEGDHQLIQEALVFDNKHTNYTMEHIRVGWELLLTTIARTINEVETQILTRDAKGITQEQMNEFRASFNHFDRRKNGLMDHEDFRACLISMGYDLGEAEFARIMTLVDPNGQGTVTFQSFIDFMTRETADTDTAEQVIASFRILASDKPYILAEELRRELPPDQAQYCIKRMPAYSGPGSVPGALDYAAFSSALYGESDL
Experimental: Schemes of the fusion constructs for human PKN, human skeletal muscle type α-actinin (HuActSkl , designated in (Beggs, A., et al., J. Biol. Chem. 267, 9281-9288 (1992)) and non-skeletal muscle type α-actinin (HuActNm, designated in (Beggs, A., et al., J. Biol. Chem. 267, 9281-9288 (1992)) used in this study are shown in FIGS. 41 and 42. Screening of proteins, which bind to the N-terminal region of human PKN (the amino acid sequence 1-540, this region being designated as “PKNNl”), was performed as described in Example 6. Primary positive clones were recovered and retransfected into the original yeast host strain YGH1 (a, ura3-52, his3-200, ade2-101, lys2-801, trpl-901, leu2-3, Can^r, gal4-542, gal80-538, LYS2::gal1uas-gal1tala-HIS3, URA3::gall-lacZ) in combination with the Gal4bd-PKN or the Gal4bd-p53 tumor suppresser. Plasmids that activated marker expression only in the presence of PKN were analyzed further.
The two-hybrid methods was employed to identify the region of PKN that interacted with HuActSkl , and this region was compared with the binding site for RhoA, which binds to PKN, in vitro and in vivo. […] This region corresponds to the second leucine zipperlike sequence and the N-terminal region adjacent thereto, which is conserved through evolution in vertebrates (Mukai, H., et al., Biochim. Biophys. Acta 1261, 296-300 (1995)). […]

RhoA = molecular target: T4, RhoA (Homo sapiens, UniProt P61586); assay: Yeast two-hybrid, region of PKN with RhoA; format: binding; settings: data not shown
T4 construct: expressed in transfected cells; host or cells: yeast (two-hybrid system)
T4 sequence (P61586 whole entry): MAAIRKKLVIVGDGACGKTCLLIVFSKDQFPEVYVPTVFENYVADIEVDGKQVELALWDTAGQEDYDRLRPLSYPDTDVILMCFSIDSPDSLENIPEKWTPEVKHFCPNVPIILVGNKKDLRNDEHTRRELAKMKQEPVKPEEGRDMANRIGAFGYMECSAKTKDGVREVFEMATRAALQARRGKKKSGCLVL
Excerpt: The two-hybrid methods was employed to identify the region of PKN that interacted with HuActSkl , and this region was compared with the binding site for RhoA, which binds to PKN, in vitro and in vivo. […] This region corresponds to the second leucine zipperlike sequence and the N-terminal region adjacent thereto, which is conserved through evolution in vertebrates (Mukai, H., et al., Biochim. Biophys. Acta 1261, 296-300 (1995)). Thus α-actinin binds to the region distinct from that which binds to Rho.

Chain of full-length human PKN (P35609 333-894): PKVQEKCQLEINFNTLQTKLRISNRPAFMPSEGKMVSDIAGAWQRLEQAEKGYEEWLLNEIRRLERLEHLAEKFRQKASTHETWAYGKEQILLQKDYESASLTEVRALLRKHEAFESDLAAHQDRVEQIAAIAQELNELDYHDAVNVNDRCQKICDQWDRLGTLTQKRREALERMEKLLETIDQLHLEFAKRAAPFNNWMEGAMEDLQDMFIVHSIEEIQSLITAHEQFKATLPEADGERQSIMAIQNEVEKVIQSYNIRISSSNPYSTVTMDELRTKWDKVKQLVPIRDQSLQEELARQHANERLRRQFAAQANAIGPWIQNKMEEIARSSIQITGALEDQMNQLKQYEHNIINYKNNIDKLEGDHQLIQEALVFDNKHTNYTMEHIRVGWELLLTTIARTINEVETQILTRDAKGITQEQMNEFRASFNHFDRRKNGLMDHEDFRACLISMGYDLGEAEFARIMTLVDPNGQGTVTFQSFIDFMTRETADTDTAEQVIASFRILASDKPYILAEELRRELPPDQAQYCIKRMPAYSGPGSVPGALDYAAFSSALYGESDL
Chain of full-length human PKN (Q16512 whole entry, the tested form may be a part): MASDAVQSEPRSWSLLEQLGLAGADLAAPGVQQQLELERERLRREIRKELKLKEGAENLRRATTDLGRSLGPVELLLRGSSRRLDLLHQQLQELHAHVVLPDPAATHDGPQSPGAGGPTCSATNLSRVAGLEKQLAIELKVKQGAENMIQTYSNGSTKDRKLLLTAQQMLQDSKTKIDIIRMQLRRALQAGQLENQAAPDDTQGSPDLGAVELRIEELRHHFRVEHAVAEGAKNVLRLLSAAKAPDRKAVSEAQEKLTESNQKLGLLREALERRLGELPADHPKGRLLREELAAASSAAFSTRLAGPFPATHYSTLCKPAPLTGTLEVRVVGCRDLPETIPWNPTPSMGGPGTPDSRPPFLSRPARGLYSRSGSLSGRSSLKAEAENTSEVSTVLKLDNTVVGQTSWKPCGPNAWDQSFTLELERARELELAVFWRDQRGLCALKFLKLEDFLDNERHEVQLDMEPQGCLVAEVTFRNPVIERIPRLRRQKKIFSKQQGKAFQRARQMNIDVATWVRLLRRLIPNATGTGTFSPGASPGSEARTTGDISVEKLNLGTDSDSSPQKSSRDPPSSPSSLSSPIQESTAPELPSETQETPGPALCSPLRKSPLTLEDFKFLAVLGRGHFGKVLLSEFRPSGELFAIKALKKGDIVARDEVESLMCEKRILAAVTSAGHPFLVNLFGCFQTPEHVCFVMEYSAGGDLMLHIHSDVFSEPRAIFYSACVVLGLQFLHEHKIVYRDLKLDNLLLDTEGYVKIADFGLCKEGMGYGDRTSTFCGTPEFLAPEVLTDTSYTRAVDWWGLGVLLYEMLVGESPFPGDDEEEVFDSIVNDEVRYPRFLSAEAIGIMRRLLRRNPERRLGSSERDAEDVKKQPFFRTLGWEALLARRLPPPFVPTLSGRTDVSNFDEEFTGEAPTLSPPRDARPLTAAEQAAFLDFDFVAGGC

Substance: HA-tagged α-actinin: influenza HA epitope fused to the amino acid sequence 333-894 of HuActSkl (clone#4)
- co-immunoprecipitation of PKN with anti-HA antibody (full-length human PKN): contained substantially immunoreactive PKN

Substance: HuActSkl (837-894): human skeletal muscle type α-actinin fragment, GST fusion (ILASDKPYILAEELRRELPPDQAQYCIKRMPAYSGPGSVPGALDYAAFSSALYGESDL; also: GST fusion)
- binding of in vitro translated PKNN2 to the fragment [1]: not

Substance: PKN: in vitro translated PKN (PKNN2, 1-474) in the binding assays of b333 and b480
- in vitro binding to repeat 20 of rat α-spectrin [2]: not detected
- binding to each subunit of NF at the head-rod domain in vitro [3]: directly bound

Substance: PKNN2: N-terminal region of PKN, amino acid sequence 1-474 in SEQ ID NO: 1, in vitro translated
- binding to spectrin-like repeat 3 domain of HuActNm [4]: could bind
- binding to EF-hand-like domain of HuActNm ([5]; absence of Ca^2+): not detected
- binding to EF-hand-like region of HuActNm ([5]; presence of 1 mM Ca^2+): could effectively bind

Substance: amino acid 136-189 of PKN: region of PKN: second leucine zipper-like sequence and adjacent N-terminal region
- interaction with α-actinin in two-hybrid system (α-actinin (HuActSkl)): strongly interacted
- interaction with RhoA in two-hybrid system (RhoA): no interaction was detected
